Test system: MS2 coat protein
Test: apparent KD of MS2 coat protein; higher = weaker reporter binding
Conditions: Eterna round: R107
Method in brief: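 Designed RNA switches, transcribed on-chip from Illumina sequencing clusters, were titrated with SNAP-549-labelled MS2 coat protein from 0.7 or 1.5 nM to 3 µM in twofold steps. The solution was 100 mM Tris-HCl pH 7.5, 80 mM KCl, 4 mM MgCl2, with constant ligand or without it. Apparent KD is the median over each design's normalised cluster binding-curve fits.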

[1] = input ligand: theophylline 20 uM
[2] = input ligand: tryptophan 2.4 mM
[3] = input ligand: theophylline 2 mM

Row | Sequence | apparent KD of MS2 coat protein (input ligand: arginine 13.2 mM) [nM] | apparent KD of MS2 coat protein [1] [nM] | apparent KD of MS2 coat protein [2] [nM] | apparent KD of MS2 coat protein (input ligand: none) [nM] | apparent KD of MS2 coat protein [3] [nM]
1 | AGCUCAUAGAGUGAUACCAGACUACAUGAGGAUCACCCAUGUUACUUUUAAAUAUCAUUUGUCCCUUGGCAGCACAUGAAGAGCA [JR_Nu_ExcTheophyB_Sub017] | 18.3 | 18.5 | 13.8 |  | 
2 | AUAACAUGAGGAUCACCCAUGUAAGCAGAUACCAGCUAGGAAACUAGCCCUUGGCAGCUGCAAUCAUGGGUGUUUGCAGCUGCAA [(M1)-(M2)-(T1)-(T2)-(M)'-(T)'_Design2] | 21.2 | 36.9 | 13 | 18.1 | 19.9
3 | ACGGGCAUGGCGGCCGCCACUGGUUGGCGUGCGGAUGAGGGAACAUGAGGAUCACCCAUGUUGGUUAGGACCGGGCUGGCGUCGA [kkymullin] | 12.6 | 49.8 | 18 | 15.4 | 16
4 | AACAUGAGGAUCACCCAUGUGUCCUCGAAACGAGGACCGGUACGGCCGCCACUCGAGCUAUGUUGACGAAAAGUCAGCAUAGCAA [Mat - Exclusion - Trytophan A - D13] | 123 | 316 | 1080 | 276 | 374
5 | AGACAUGAGGAUCACCCAUGUAGUACGGAUACCAGAUCCAGAUGCGUCCCUUGGCAGCUGUAGUACAGCGUUACAUCGCUCGUAG [Exclusion - Theophylline A (Freestyle 24)] | 16.9 | 24.8 | 22.4 |  | 
6 | AACGUAUACAGAAGGAGCGUGAUUUGUGUUACUCAUUCAUAUACAUGAGGAUCACCCAUGUCACAGGUAGGUCGCUGUAUUCGUA [JR_ExcArginiB_Sub022] | 39.8 | 128 | 53.8 | 166 | 87.1
7 | GUAGGUCACCUCAUGAGACCUACCCUGGAAGGAGCGAGCGAAAGCUCAGGUAGGUCGCCAGAAACAUGAGGAUCACCCAUGUAAU [(A)''-(M)'-(A)'-(Arg1)-(Arg2)-(M1)-(M2)_Design3] | 29.4 | 150 | 44.6 | 51.1 | 190
8 | GGCCAAAAGGCGGCCGCCACUCAAGAGUAGCAUGGAAAGACAUGAGGAUCACCCAUGUAAAGAAAGAGGACCGGGCCAAAAGGCC | 28.4 | 141 | 193 | 117 | 262
9 | UGACAGAUAACCGCUGGUGCUCUUGAGUUGCGAGGACCGGUACGGCCGCCACUCGACAACAUGAGGAUCACCCAUGUUGCGGGUC [Soleeror] | 38.3 | 89.5 | 85.1 | 146 | 146
10 | UCUAGUGCGGGAAGGAGCGCCAUACAUGAGGAUCACCCAUGUUGAGCAUGCUCGUGUACUAGGCAGGUAGGUCGCCCGCUCUACG [Radionle] | 28.8 | 30.9 | 23.3 | 27.2 | 23.5
11 | GUUGAGACCUCGGCCGCCACUCGCCAUGAGGAUCUCCCAUGUAACAUGAGGAUCACCCAUGUACUGAGGACCGGGAGGUCCUAGU [Same State Tryptophan B GF 15] | 17.2 | 34 | 65.6 | 17.4 | 33.5
12 | AAAGCCACUUCGGCCGCCACUACAACAUGAGGAUCACCCAUGUACCUCGUGUACGGUCCGAGGAGUAGGACCGGGAAGUGGUGGA [(T1'')-(Trp1)-(Ms2)-(M')-(T2')-(M'')-(Trp2)-(T1')] | 94 | 193 |  |  | 175
13 | GUCGCUGAGGGAAGGAGCGUGAAGACAUGAGGAUCACCCAUGUAGAGGCGCCGAAGGCGUUCGCAGGUAGGUCGCCCUCAGUGAC [#1 Same State - Arginine B Attempt #22 (HarryS)] | 42.4 | 23.2 | 16.8 | 19.3 | 16.7
14 | AGAUUCGACACGGCCGCCACUCGUGACGGAUUUCCGAGUGUCGAACAUGAGGAUCACCCAUGUACGAGGACCGGGUGUUGAGUCU [XTryp B #13] | 39.6 | 86.7 |  |  | 90.4
15 | GGGAAAGAAUGUGAUACCAGAGAACCGGUCUCCAUCAAUAUACAUGAGGAUCACCCAUGUCUCCCUUGGCAGCACCAUCAUCAAA [Exclusion Theophylline B GF 27] | 21 | 28.3 | 22 |  | 
16 | UGUCCUCAUGCGGCCGCCACUGUCGGCCGCCACUAAACCUGAGGAUCACCCGGGUAGGACCGGGACAGGACCGGGCAUGGGUGCU [#DoubleAptamer 4 #AlternativeMS2] | 47.4 | 486 | 111 | 315 | 686
17 | AGCACGGUGAUGGUAGCCGGACGAUAAGUACGAGGACCGGUACGGCCGCCACUCGAAGUCCUACGACAUGAGGAUCACCCAUGUA [Same State Trp A GF11] | 30.4 | 47 |  |  | 73.6
18 | GACCCAUGAGUUGGAAAAGCUCAUGGGUCGCGAGGACCGGUACGGCCGCCACUCGGCUGUACAUGAGGAUCACCCAUGUCAGGGU [#1 Same State - Tryptophan A Attempt #25 (HarryS)] | 96.9 | 614 | 711 | 125 | 573

Row | Sequence | apparent KD of MS2 coat protein (input ligand: arginine 13.2 mM) [nM] | apparent KD of MS2 coat protein [1] [nM] | apparent KD of MS2 coat protein [2] [nM] | apparent KD of MS2 coat protein (input ligand: none) [nM] | apparent KD of MS2 coat protein [3] [nM]
19 | GGUUCAUCGUCGGCCGCCACUCACAUGAGGUGGAGCUGUAAACAUGAGGAUCACCCAUGUUGUUAGAGGACCGGGACGUGACGGC [theeternabot_exclusion_MS2_Trp_B_6] | 25.5 | 43.4 |  |  | 42.1
20 | ACAUGAGGAUCACCCAUGUUCCUCGCCGAUACCAGUGAAGAAGUACGCCCUUGGCAGCGGAAAGAGUAUUUUGGAGAUGAGGUAC [6.Y] | 57 | 94.3 | 88.3 |  | 
21 | CCGUUUUAUGGCGACAUAGGGCGGACUGAAGGAGCGGUAUAAAAGCCAGGUAGGUCGCAGAGAUCCACAUGAGGAUCACCCAUGU [!0.aA] | 29.4 | 45.8 | 51 | 39.7 | 41
22 | ACAUGAGGAUCACCCAUGUUUGUUGUUCCUCGAGGACCGGUACGGCCGCCACUCGAACGAGUGGCGCGCGCGCGCGCGCGCGCGC [aMa] | 11.6 | 36.4 | 12.6 | 13.3 | 16.4
23 | UUGGGUUUGUGAAGGAGCGGGAAAGAUAUAUAUUUAAUCCUAACAUGAGGAUCACCCAUGUCCCAGGUAGGUCGCGCGGGUUUGG [12.O] | 33.9 | 46.4 | 46.9 | 47.1 | 64.3
24 | UGUCGGCGAAAGUUGGCGUGUCUUGCUGGUCGAGGACCGGUACGGCCGCCACUCGAUCCUUCGCACAUGAGGAUCACCCAUGUUG [SS Tryp A #24] | 25.8 | 49.1 |  |  | 34.8
25 | GACAUGAGGAUCACCCAUGUACCGCGAGAAGGAGCGCGGAUAAACGCAGGUAGGUCGCUCGUGGGCUUAUAUUCAAUUGUAAGCU [Usence] | 24.8 | 43.1 | 30.4 | 33.2 | 44.6
26 | AUGUCGUUGAAUAUAGCGGCUUGGUGUGAUACCAGAAUGAUCUAAUUCCCUUGGCAGCAUUACAUGAGGAUCACCCAUGUUCCAG [SSTheo A #21] | 23.6 | 47.4 | 48.7 | 39.1 | 57.3
27 | ACAUGAGGAUCACCCAUGUGCAGCACGGAUACCAGCGUCCUAGUGCGCCCUUGGCAGCCGGACAUGAGGAUCACCCAUGUGUGGG [Exclusion Theophylline A GF30] | 50.2 | 135 | 95.7 |  | 
28 | AUGCAGGGCAACAGCCACUGUCACGGUGAUACCAGUACCCGUGCGUACCCUUGGCAGCAUCGUGGUACAUGAGGAUCACCCAUGU [Enatleceed] | 36.8 | 503 | 546 |  | 
29 | CUGACGUAGGAAGAUAUCUGGAACAAGGAUACCAGUAAACCAACAUACCCUUGGCAGCCUAAAACAUGAGGAUCACCCAUGUAAU [theeternabot_exclusion_MS2_Theo_A_26] | 11.9 | 14.2 | 13.7 |  | 
30 | CUAUAUUAUAGAAGGAGCGUCGAAAAUGGGUAAACAUGAGGAUCACCCAUGUAAAGGGAACGACAGGUAGGUCGCUAUAAUAUAG [AstromonsSSArgB#13] | 117 | 201 | 195 | 220 | 252
31 | AUCUUUGGCGAUCUGGGAAAACCAGAUCGACGAGGACCGGUACGGCCGCCACUCGUGUAUAAUAUACAUGAGGAUCACCCAUGUA [#18 Tryptophan A Same State] | 27.8 | 61.1 |  |  | 64.7
32 | AAUGUAUGGCACAUGAGGAUCACCCAUGUGCGAGGACCGGUACGGCCGCCACUCGGUCCUGGGUUCUUAUUACUAUACAUUAAUG [XTryp A #15] | 9.78 | 16 | 27.1 | 11 | 14.4
33 | GGCGCUGCGUCGGCCGCCACUAGCGGGUAAUGGGUGUACAUGAGGAUCACCCAUGUAAUAUGGCCUAGGACCGGGACGUGGCGCC [Moose] | 259 | 415 | 620 | 427 | 465
34 | CUAAGAGCGGCGGCCGCCACUGGUAACCAAGAGGCGGAGCCUCUGACAUGAGGAUCACCCAUGUUCAGGACCGGGUCGUCUUAGA [#07 Same State - Tryptophan B] | 7.23 | 13.6 | 10.9 | 12.2 | 18.5
35 | ACAUGAGGAUCACCCAUGUAACAAACAGAAGGAGCGUGAAAGAACACAGGUAGGUCGCUGAACUUAAUGAAUACUCAUUAGAUCC [JR_Nu_SSArginiA_Sub027] | 13.4 | 18.9 | 14.6 | 14.7 | 15.8
36 | UGUGCAGGAUGUGUAAAAGGUCUUGGGCAUCGAGGACCGGUACGGCCGCCACUCGGCUGUACAUGAGGAUCACCCAUGUCAGGGU [#1 Same State - Tryptophan A Attempt #21 (HarryS)] | 30.5 | 554 | 737 | 220 | 694
